In US20210253718A1, “FRIZZLED5 PROTEIN-BINDING AGENTS” (Modmab Therapeutics Corporation, priority 2016, published 2021):

T1: FZD5 CRD (Homo sapiens, UniProt Q13467)
T1 construct: K29-T156; GPI anchor signal (C); expressed in transfected cells; host or cells: CHO cells, lentiviral pLenti-puro
T1 sequence (Q13467 29-156): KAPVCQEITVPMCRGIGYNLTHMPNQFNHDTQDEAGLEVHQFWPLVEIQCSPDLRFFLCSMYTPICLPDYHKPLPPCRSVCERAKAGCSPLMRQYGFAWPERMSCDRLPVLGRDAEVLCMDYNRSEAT

T2: FZD6 CRD (Homo sapiens, UniProt O60353)
T2 construct: S20-P146; GPI anchor signal (C); expressed in transfected cells; host or cells: CHO cells, lentiviral pLenti-puro
T2 sequence (O60353 20-146): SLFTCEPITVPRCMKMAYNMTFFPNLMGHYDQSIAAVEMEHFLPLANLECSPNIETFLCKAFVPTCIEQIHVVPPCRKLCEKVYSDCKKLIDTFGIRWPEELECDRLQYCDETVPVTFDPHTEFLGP

T3: FZD8 CRD (Homo sapiens, UniProt Q9H461)
T3 construct: K31-D155; GPI anchor signal (C); expressed in transfected cells; host or cells: CHO cells, lentiviral pLenti-puro
T3 sequence (Q9H461 31-155): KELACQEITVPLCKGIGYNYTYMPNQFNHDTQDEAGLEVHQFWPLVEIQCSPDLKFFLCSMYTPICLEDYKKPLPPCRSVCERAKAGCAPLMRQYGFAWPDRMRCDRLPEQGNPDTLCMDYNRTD

B1: Fab-2919: anti-FZD5 Fab with antibody variable region Fv-2919; CDR SEQ ID NOs: 35, 36, 58, 97, 134, 155 (antibody, V domains shown)
VH: EVQLVESGGGLVQPGGSLRLSCAASGFNISYSYIHWVRQAPGKGLEWVASIYSSSGSTSYADSVKGRFTISADTSKNTAYLQMNSLRAEDTAVYYCARGAIDYWGQGTLVTVSS
VL: DIQMTQSPSSLSASVGDRVTITCRASQSVSSAVAWYQQKPGKAPKLLIYSASSLYSGVPSRFSGSRSGTDFTLTISSLQPEDFATYYCQQWYSSGHVLITFGQGTKVEIK
B2: Fab-2920: anti-FZD5 Fab with antibody variable region Fv-2920; CDR SEQ ID NOs: 35, 36, 59, 98, 135, 170 (antibody, V domains shown)
VH: EVQLVESGGGLVQPGGSLRLSCAASGFNISYYYIHWVRQAPGKGLEWVASIYPSSGSTSYADSVKGRFTISADTSKNTAYLQMNSLRAEDTAVYYCARGGMDYWGQGTLVTVSS
VL: DIQMTQSPSSLSASVGDRVTITCRASQSVSSAVAWYQQKPGKAPKLLIYSASSLYSGVPSRFSGSRSGTDFTLTISSLQPEDFATYYCQQWFAGALITFGQGTKVEIK
B3: Fab-2921: anti-FZD5 Fab with antibody variable region Fv-2921; CDR SEQ ID NOs: 35, 36, 60, 98, 136, 162 (antibody, V domains shown)
VH: EVQLVESGGGLVQPGGSLRLSCAASGFNISYYYIHWVRQAPGKGLEWVASIYPSSGSTSYADSVKGRFTISADTSKNTAYLQMNSLRAEDTAVYYCARGAMDYWGQGTLVTVSS
VL: DIQMTQSPSSLSASVGDRVTITCRASQSVSSAVAWYQQKPGKAPKLLIYSASSLYSGVPSRFSGSRSGTDFTLTISSLQPEDFATYYCQQWYAGSLITFGQGTKVEIK
B4: Fab-2924: anti-FZD5 Fab with antibody variable region Fv-2924; CDR SEQ ID NOs: 35, 36, 63, 101, 139, 153 (antibody, V domains shown)
VH: EVQLVESGGGLVQPGGSLRLSCAASGFNISYSYIHWVRQAPGKGLEWVASIYSYYSSTSYADSVKGRFTISADTSKNTAYLQMNSLRAEDTAVYYCARGALDYWGQGTLVTVSS
VL: DIQMTQSPSSLSASVGDRVTITCRASQSVSSAVAWYQQKPGKAPKLLIYSASSLYSGVPSRFSGSRSGTDFTLTISSLQPEDFATYYCQQWYSGHSLITFGQGTKVEIK
B5: Fab-2922: anti-FZD5 Fab with antibody variable region Fv-2922; CDR SEQ ID NOs: 35, 36, 61, 99, 137, 171 (antibody, V domains shown)
VH: EVQLVESGGGLVQPGGSLRLSCAASGFNIYSSYMHWVRQAPGKGLEWVASISPYSGYTSYADSVKGRFTISADTSKNTAYLQMNSLRAEDTAVYYCARTVRGSKKPYFSGWAMDYWGQGTLVTVSS
VL: DIQMTQSPSSLSASVGDRVTITCRASQSVSSAVAWYQQKPGKAPKLLIYSASSLYSGVPSRFSGSRSGTDFTLTISSLQPEDFATYYCQQSFVYPYLITFGQGTKVEIK

Columns and labels:
[1] = test system: RWP1 cells; test: Effect of anti-FZD5 Fabs on proliferation of pancreatic cancer cell lines (percent growth inhibition); type: cell-based, human; settings: Fab 2 μg/ml
[2] = test system: PATU8988S cells; test: as above; type: cell-based, human; settings: Fab 2 μg/ml
[3] = target: T1, FZD5 CRD; test: Immunofluorescence of anti-FZD5 Fab binding to CHO cells overexpressing Frizzled CRD; design: key: −: no binding; +: very weak binder; ++: weak binder; +++: good binder; ++++: very good binder
Summary of the method: (§1)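 CHO panel, 10 lines, each w/ one human FZD CRD-myc-GPI (lentiviral). Anti-FZD5 Fabs applied; surface binding scored by IF, cross-checked by FACS.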

[4] = target: T2, FZD6 CRD; test: as above; design: key: −: no binding; +: very weak binder; ++: weak binder; +++: good binder; ++++: very good binder
Summary of the method: as §1

[5] = target: T4, FZD2 CRD (Homo sapiens, UniProt Q14332); test: as above; design: key: −: no binding; +: very weak binder; ++: weak binder; +++: good binder; ++++: very good binder
T4 construct: D35-P161; GPI anchor signal (C); expressed in transfected cells; host or cells: CHO cells, lentiviral pLenti-puro
Summary of the method: as §1

[6] = target: T3, FZD8 CRD; test: as above; design: key: −: no binding; +: very weak binder; ++: weak binder; +++: good binder; ++++: very good binder
Summary of the method: as §1

[7] = target: T5, FZD7 CRD (Homo sapiens, UniProt O75084); test: as above; design: key: −: no binding; +: very weak binder; ++: weak binder; +++: good binder; ++++: very good binder
T5 construct: D45-S169; GPI anchor signal (C); expressed in transfected cells; host or cells: CHO cells, lentiviral pLenti-puro
Summary of the method: as §1

[8] = test system: CHO cells not expressing Frizzled CRD; test: Flow cytometry of anti-FZD5 Fab binding to CHO cells not expressing Frizzled CRD (background)
Source text: The binding of anti-FZD5 Fabs to cell surface-expressed Frizzled protein was further determined for each member of the Frizzled family via flow cytometry and immunofluorescence analysis of a panel of 10 CHO cell lines, each ectopically over-expressing the extracellular cysteine-rich domain (CRD) of a different Frizzled protein family member.

[9] = test system: PATU8988S cells; test: Effect of anti-FZD5 Fabs on proliferation of pancreatic cancer cell lines (percent growth inhibition); type: cell-based, human; settings: Fab 10 μg/ml
Procedure: (§2) The effect of presently disclosed anti-FZD5 Fabs on proliferation of RNF43 loss-of-function mutant pancreatic cancer cell lines HPAFII, PATU8988S and ASPC-1; and on pancreatic cancer cell line RWP1, was tested at […] and 10 μg/ml.

[10] = test system: HPAFII cells; test: as above; type: cell-based, human; settings: for percent growth inhibition, HPAFII 2 μg/ml: Fab 2 μg/ml; for percent growth inhibition, HPAFII 10 μg/ml: Fab 10 μg/ml
Procedure: as §2

[11] = test system: ASPC-1 cells; test: as above; type: cell-based, human; settings: Fab 10 μg/ml
Procedure: as §2

[12] = test system: RWP1 cells; test: as above; type: cell-based, human; settings: Fab 10 μg/ml
Procedure: as §2

[13] = test system: ASPC-1 cells; test: as above; type: cell-based, human; settings: Fab 2 μg/ml

| Molecule | percent growth inhibition, RWP1 2 μg/ml [1] | percent growth inhibition, PATU8988s 2 μg/ml [2] | Immunofluorescence binding, Frizzled CRD overexpressed on CHO cells: FZD5 [3] | Immunofluorescence binding, Frizzled CRD overexpressed on CHO cells: FZD6 [4] | Immunofluorescence binding, Frizzled CRD overexpressed on CHO cells: FZD2 [5] | Immunofluorescence binding, Frizzled CRD overexpressed on CHO cells: FZD8 [6] | Immunofluorescence binding, Frizzled CRD overexpressed on CHO cells: FZD7 [7] | Median fluorescence, Frizzled CRD overexpressed on CHO cells: None [8] | percent growth inhibition, PATU8988s 10 μg/ml [9] | percent growth inhibition, HPAFII 2 μg/ml [10] | percent growth inhibition, HPAFII 10 μg/ml [10] | percent growth inhibition, ASPC-1 10 μg/ml [11] | percent growth inhibition, RWP1 10 μg/ml [12] | percent growth inhibition, ASPC-1 2 μg/ml [13] |
| --- | --- | --- | --- | --- | --- | --- | --- | --- | --- | --- | --- | --- | --- | --- |
| B1 | 7.36% | −7.74% | ++++ | − | − | ++ | − | 3.08 | −11.49% | 16.25% | 36.80% | 35.99% | 22.54% | 30.04% |
| B2 | −16.26% | 6.20% | ++++ | − | − | + | − | 3.37 | −5.60% | 29.48% | 32.93% | 40.69% | −3.09% | 33.66% |
| B3 | −4.47% | −1.56% | ++++ | − | − | + | − | 3.22 | −16.29% | 30.70% | 44.23% | 47.95% | −0.10% | 43.20% |
| B4 | 42.76% | −16.11% | ++++ | − | − | + | − | 4.1 | −21.08% | −10.43% | −5.35% | 16.29% | 48.95% | 8.55% |
| B5 | −6.96% | 9.16% | ++++ | − | − | + | − | 3.89 | −24.14% | 8.28% | 8.14% | 27.72% | 7.59% | 14.47% |
